Experimental data published in patent US20260055193A1 (CELLDEX THERAPEUTICS, published 2026).
Values belong to the binder of their own block, whether it stands above or below them.

Assays:
[1] = biological target: human KIT (wild-type KIT) (human, UniProt P10721 26-976); assay: cell-based or functional assay
[2] = biological target: T1, recombinant human FcγRIIb (human, UniProt P31994 46-217, limits assumed); assay: Bio-layer interferometry (Octet QKe); His-tagged FcγRIIb on anti-Penta-His biosensors, serial dilutions of antibody
T1 construct: Histidine-tagged recombinant receptor captured on anti-Penta-His biosensors; not shown: histidine tag
T1 sequence (looked up): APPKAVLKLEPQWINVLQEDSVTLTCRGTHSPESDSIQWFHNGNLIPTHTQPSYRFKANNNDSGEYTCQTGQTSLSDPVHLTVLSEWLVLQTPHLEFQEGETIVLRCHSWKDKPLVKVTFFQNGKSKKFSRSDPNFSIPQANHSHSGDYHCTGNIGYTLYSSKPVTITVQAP

human KIT (wild-type KIT), sequence (P10721 other isoform, or with tags, fused parts or gaps limits assumed): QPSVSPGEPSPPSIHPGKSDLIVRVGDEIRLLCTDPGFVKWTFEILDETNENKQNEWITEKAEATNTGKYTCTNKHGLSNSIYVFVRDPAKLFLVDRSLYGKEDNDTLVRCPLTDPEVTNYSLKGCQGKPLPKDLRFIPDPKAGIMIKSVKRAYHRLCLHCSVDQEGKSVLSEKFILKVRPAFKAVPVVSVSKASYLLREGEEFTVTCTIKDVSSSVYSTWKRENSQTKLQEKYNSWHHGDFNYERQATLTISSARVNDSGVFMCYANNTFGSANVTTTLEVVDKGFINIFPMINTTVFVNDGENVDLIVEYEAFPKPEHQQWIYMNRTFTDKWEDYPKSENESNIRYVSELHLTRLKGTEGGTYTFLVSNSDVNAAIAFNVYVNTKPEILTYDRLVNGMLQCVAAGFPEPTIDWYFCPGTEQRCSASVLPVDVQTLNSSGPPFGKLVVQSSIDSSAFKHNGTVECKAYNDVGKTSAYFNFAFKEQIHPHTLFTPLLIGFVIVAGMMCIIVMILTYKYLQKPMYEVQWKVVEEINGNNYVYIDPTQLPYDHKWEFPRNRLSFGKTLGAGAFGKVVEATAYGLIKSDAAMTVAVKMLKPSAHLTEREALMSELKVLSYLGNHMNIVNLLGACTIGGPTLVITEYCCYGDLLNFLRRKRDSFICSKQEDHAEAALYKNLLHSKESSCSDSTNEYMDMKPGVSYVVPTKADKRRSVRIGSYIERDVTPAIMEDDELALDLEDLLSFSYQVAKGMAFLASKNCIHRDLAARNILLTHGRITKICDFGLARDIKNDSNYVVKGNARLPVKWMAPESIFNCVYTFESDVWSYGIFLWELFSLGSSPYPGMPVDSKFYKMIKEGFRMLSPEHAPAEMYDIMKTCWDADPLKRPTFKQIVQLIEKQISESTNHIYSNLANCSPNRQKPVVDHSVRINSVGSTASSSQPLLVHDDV

- IC50 of inhibition of SCF-dependent M-07e cell proliferation [1]: 1.11 nM
B1: mAb1 (antibody, human IgG1, kappa)
heavy: QVQLVQSGAEVKKPGASVKLSCKASGYTFTDYYINWVRQAPGKGLEWIARIYPGSGNTYYNEKFKGRATLTADKSTSTAYMQLSSLRSEDTAVYFCARGVYYFDYWGQGTTVTVSSASTKGPSVFPLAPSSKSTSGGTAALGCLVKDYFPEPVTVSWNSGALTSGVHTFPAVLQSSGLYSLSSVVTVPSSSLGTQTYICNVNHKPSNTKVDKKVEPKSCDKTHTCPPCPAPEAQGGPSVFLFPPKPKDTLYITREPEVTCVVVDVSHEDPEVKFNWYVDGVEVHNAKTKPREEQYNSTYRVVSVLTVLHQDWLNGKEYKCQVSNKALPAPIEKTISKAKGQPREPQVYTLPPSRDELTKNQVSLTCLVKGFYPSDIAVEWESNGQPENNYKTTPPVLDSDGSFFLYSKLTVDKSRWQQGNVFSCSVMHEALHNHYTQKSLSLSPG
light: DIVMTQSPSSLSASVGDRVTITCKASQNVRTNVAWYQQKPGKAPKALIYSASYRYSGVPDRFTGSGSGTDFTLTISSLQPEDFADYFCQQYNSYPRTFGGGTKVEIKRTVAAPSVFIFPPSDEQLKSGTASVVCLLNNFYPREAKVQWKVDNALQSGNSQESVTEQDSKDSTYSLSSTLTLSKADYEKHKVYACEVTHQGLSSPVTKSFNRGEC

- IC50 of inhibition of SCF-dependent M-07e cell proliferation [1]: 1.12 nM
- binding result [2]: no binding (tested: 500 nM)
B2: mAbc (antibody)
heavy: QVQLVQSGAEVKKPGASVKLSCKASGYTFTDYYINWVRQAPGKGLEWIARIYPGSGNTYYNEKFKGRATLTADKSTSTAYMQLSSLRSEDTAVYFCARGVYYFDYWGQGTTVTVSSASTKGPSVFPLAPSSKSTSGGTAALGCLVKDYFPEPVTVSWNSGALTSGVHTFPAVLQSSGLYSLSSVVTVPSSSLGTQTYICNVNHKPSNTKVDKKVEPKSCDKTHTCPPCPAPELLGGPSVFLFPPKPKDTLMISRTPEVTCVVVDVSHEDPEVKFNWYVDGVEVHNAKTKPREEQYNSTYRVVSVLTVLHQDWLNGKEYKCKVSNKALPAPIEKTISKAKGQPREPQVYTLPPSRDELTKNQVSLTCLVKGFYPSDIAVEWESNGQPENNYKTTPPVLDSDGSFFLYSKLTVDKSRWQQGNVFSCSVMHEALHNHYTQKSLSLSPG
light: B1 light
notes: It only says that mAbc has the variable regions of mAb1 and a wild-type (unmutated) human IgG1 Fc; also called corresponding antibody with a wild-type (unmutated) IgG1 Fc domain; copies: 2 + 2
